Assay [1] concerns the target T1, human GFRα3 on HEK293/hGFRα3/hRET/SRE-luc cells (human, UniProt O60609 32-382).
T1 sequence: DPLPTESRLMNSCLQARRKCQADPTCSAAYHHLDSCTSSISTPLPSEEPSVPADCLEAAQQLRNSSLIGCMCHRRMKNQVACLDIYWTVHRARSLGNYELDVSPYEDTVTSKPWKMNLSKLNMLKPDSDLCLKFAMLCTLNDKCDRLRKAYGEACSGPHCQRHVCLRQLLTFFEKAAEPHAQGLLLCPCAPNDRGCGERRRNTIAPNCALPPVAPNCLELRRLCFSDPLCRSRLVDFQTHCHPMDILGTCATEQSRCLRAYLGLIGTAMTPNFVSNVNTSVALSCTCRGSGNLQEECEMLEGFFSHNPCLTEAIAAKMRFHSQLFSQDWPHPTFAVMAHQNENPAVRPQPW
The assay can be described thus: cell-based or functional assay.

The target in assay [2] is T2, human GFRα3 expressed with a C-terminal myc-myc-hexahistidine tag (human, UniProt O60609 32-374, biotinylated (sites not given) in ELISA format 2 and in the Octet cross-competition; not in SPR).
T2 construct: also called hGFRα3-mmh; hGFRα3-mmH
The assay can be described thus: blocking ELISA 2, biotin-hGFRα3-mmH to coated hARTEMIN-mmH + hRET-10His. The procedure:
(§1) The equilibrated sample solutions were then transferred to the hARTEMIN-mmH-coated plate. […] Absorbance was recorded at 450 nm on a Victor X5 plate reader (Perkin Elmer) to determine the amount of free hGFRα3-hFc in the pre-equilibrated hGFRα3-hFc-antibody solutions that was able to bind to the plate coated with hARTEMIN-mmH. IC₅₀ values, defined as the concentration of antibody required to reduce the signal from a constant concentration of hGFRα3-hFc by 50%, were calculated from the data using Prism software from GraphPad. The absorbance measured at the constant amount of 120 pM hGFRα3-hFc in the absence of anti-GFRα3 antibody is defined as 0% blocking and the absorbance with no added hGFRα3-hFc is defined as 100% blocking. The observed absorbance in the wells containing the highest antibody concentration was used to calculate the maximum blocking percent shown in the table.
In the second ELISA format, the plates, samples and data were processed similarly as for the first format except both hARTEMIN-mmH and human RET with a C-terminal 10 histidine tag (hRET-10His; R&D Systems, #1168-CR/CF) were coated for the blocking ELISA experiment. The 96-well microtiter plates were coated with a mixture of 1.2 ug/ml hARTEMIN-mmH and 6.9 ug/ml hRET-10His proteins in PBS overnight at 4° C. and then blocked with a solution of 0.5% (w/v) BSA. A constant amount of biotinylated human GFRα3 with a C-terminal myc-myc-hexahistidine tag (biotin-hGFRα3-mmH; SEQ ID:370) at 1 nM was pre-mixed with varied amounts of anti-GFRα3 antibodies, ranging from 0 to ˜100 nM in serial dilutions, followed by a 1 hour incubation at RT to allow antibody-biotin-hGFRα3-mmH binding to reach equilibrium. The equilibrated samples were then transferred to the coated plate. After 1 hour of binding, the plate was washed, then the bound biotin-hGFRα3-mmH was detected using HRP conjugated streptavidin (Pierce, #N200), and colorimetric signals were developed using TMB HRP substrates.
(ELISA stands for enzyme-linked immunosorbent assay.)

The target in assay [3] is T3, cynomolgus GFRα3 on HEK293/MfGFRα3/MfRet/SRE-Luc cells (cynomolgus, UniProt O60609 1-400 (human entry), limits assumed).
T3 chain: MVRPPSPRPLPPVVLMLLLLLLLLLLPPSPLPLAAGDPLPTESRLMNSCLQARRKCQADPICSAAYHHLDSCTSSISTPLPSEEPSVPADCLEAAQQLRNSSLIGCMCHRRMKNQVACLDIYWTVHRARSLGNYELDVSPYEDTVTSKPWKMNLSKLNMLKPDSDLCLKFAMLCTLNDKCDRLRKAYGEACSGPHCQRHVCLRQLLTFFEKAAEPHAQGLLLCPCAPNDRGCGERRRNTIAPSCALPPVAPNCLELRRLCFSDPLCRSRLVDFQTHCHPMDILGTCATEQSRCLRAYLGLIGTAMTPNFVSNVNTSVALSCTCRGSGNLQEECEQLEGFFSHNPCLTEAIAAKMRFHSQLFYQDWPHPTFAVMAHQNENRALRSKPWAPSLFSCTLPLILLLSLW
The assay can be described thus: cell-based or functional assay.

Assay [4] deals with T4, human GFRα3 expressed with a C-terminal hFc tag (human).
T4 construct: also called hGFRα3-hFc
The assay can be described thus: blocking ELISA 1, hGFRα3-hFc to coated hARTEMIN-mmH. The procedure: as §1, with “A constant amount of human GFRα3 fused with a C-terminal human Fc tag (hGFRα3-hFc; SEQ ID:371) at 120 pM was pre-mixed with varying amounts of antibodies, ranging from 0 to ˜10 nM in serial dilutions, followed by an 1 hour incubation at room temperature (RT) to allow antibody-hGFRα3-hFc binding to reach equilibrium. The equilibrated” for “The equilibrated”

The target of assay [5] is T5, monkey GFRα3 expressed with a C-terminal myc-myc-hexahistidine tag (monkey (Mf), UniProt O60609 32-374 (human entry), limits assumed).
T5 construct: also called MfGFRα3-mmh; MfGFRα3-mmH
T5 chain: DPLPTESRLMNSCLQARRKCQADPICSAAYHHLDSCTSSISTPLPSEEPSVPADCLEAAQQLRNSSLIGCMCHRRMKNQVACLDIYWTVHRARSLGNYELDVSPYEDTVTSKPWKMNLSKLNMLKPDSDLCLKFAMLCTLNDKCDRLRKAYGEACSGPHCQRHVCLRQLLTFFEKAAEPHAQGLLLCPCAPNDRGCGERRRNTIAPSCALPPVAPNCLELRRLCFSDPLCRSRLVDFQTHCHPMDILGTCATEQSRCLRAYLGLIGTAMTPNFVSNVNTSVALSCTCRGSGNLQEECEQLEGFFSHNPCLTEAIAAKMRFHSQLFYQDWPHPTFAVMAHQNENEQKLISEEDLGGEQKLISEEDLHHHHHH
The assay can be described thus: SPR, Ab captured, 25C. The procedure:
(§2) Antibodies were tested for binding to human GFRα3 expressed with either a C-terminal myc-myc-hexahistidine tag (hGFRα3-mmh; SEQ ID: 370, a C-terminal hFc tag (hGFRα3-hFc; SEQ ID:371), or a C-terminal mFc tag (hGFRα3-mFc; SEQ ID:372), as well as monkey GFRα3 expressed with a C-terminal myc-myc-hexahistidine tag (MfGFRα3-mmh; SEQ ID:373). Anti-GFRα3 antibodies were captured on either a goat anti-mouse IgG polyclonal antibody (GE Healthcare, #BR-1008-38) or a mouse anti-human IgG monoclonal antibody (GE Healthcare, #BR-1008-39) surface created through direct amine coupling to a Biacore CM5 sensor chip. Kinetic experiments were carried out using HBS-EP (10 mM HEPES, 150 mM NaCl, 3 mM EDTA, 0.05% Surfactant P20, at pH 7.4) or PBS buffer containing 0.05% v/v surfactant P20 as both the running buffer and the sample buffer. Binding to human GFRα3-mmh or monkey GFRα3-mmh was evaluated by injecting several concentrations ranging from 200 to 7.4 nM (3-fold dilutions) across the captured antibody surface. Binding to human GFRα3-mFc or human GFRα3-hFc was evaluated by injecting several concentrations ranging from 100 to 3.7 nM (3-fold dilutions) across the captured antibody surface. Antibody-antigen association was monitored for up to 4 minutes, while dissociation in buffer was monitored for up to 20 minutes. Kinetic association (kₐ) and dissociation (kd) rate constants were determined by processing and fitting the data to a 1:1 binding model using Scrubber 2.0c curve fitting software. Binding dissociation equilibrium constants (KD) and dissociative half-lives (t_{1/2}) were calculated from the kinetic rate constants as: KD (M)=kd/kₐ and t_{1/2} (min)=[ln 2/(60*kd)].
(In SPR one partner is held on a chip, and binding of the other changes the refractive index at the surface.)

For assay [6], the target named is T4, human GFRα3 expressed with a C-terminal …. The assay can be described thus: SPR, Ab captured, 25C. The procedure: as §2
The target in assay [7] is T2, human GFRα3 expressed with a C-terminal …. The assay can be described thus: SPR, Ab captured, 25C. The procedure: as §2
The target of assay [8] is T5, monkey GFRα3 expressed with a …. The assay can be described thus: SPR, Ab captured, 37C. The method, then:
as §2

Assay [9] deals with T4, human GFRα3 expressed with a C-terminal …. The assay can be described thus: SPR, Ab captured, 37C. The procedure: as §2
Assay [10] has as its target T2, human GFRα3 expressed with a C-terminal …. The assay can be described thus: SPR, Ab captured, 37C. The procedure: as §2

The record followed here is US20140056903A1 (Regeneron, published 2014).

A word on the IC50: it is the concentration that inhibits the measured activity by half. In general, Kd refers to the concentration at which binding is half-saturated. Usually koff stands for a measure of how fast the partners let go of each other. In general, kon refers to the rate constant with which the complex forms.

B1: H4H2210N (antibody, human IgG4, V domains shown)
VH: EVQLLESGGGLVQPGGSLRVSCAASGFTFSTSAMSWVRQAPGKGLEWVSGISGIGGGSTYYADSVKGRFTISRDNSKNTLYLQMNSLRAEDTAVYFCAKFYKWNSYIFDLWGQGTMVTVSS
VL: EIVLTQSPDTLSLSPGERATLSCRASQSVSSSYFAWYQQKPGQAPRLLMYSASSRATGIPDRFSGSGSGTDFSLTISRLEPEDFAVYYCQQYGRSLTFGGGTKVEIK
As for B1, the “IC50 (SRE-luc, HEK293/hGFRα3/hRET cells, 100 pM hARTEMIN-mmH)” value in assay [1] came to 2.9 nM.

B2: H4H2207N (antibody, human IgG4, V domains shown)
VH: EVQLVESGGGLVQPGRSLRLSCAASGFTFNDYAMHWVRQAPGKGLEWVSGISWNSGNIGYADSVKGRFTISRDNAKNSLYLQMNSLRAEDTALYFCARDTRMATRPFDYWGQGTLVTVSS
VL: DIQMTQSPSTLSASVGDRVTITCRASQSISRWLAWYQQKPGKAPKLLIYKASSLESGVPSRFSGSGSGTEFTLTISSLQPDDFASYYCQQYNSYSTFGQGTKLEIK
notes: human IgG4 Fc (H4H)
In the case of B2, in assay [2], the “% max blocking” value came out at 85% and the IC50 worked out at 7.3 nM. In addition, in [1], the “IC50 (SRE-luc, HEK293/hGFRα3/hRET cells, 100 pM hARTEMIN-mmH)” value is 2.4 nM.

B3: recombinant human ARTEMIN protein with a C-terminal myc-myc-hexahistidine tag (ligand)
chain: AGGPGSRARAAGARGCRLRSQLVPVRALGLGHRSDELVRFRFCSGSCRRARSPHDLSLASLLGAGALRPPPGSRPVSQPCCRPTRYEAVSFMDVNSTWRTVDRLSATACGCLGEQKLISEEDLGGEQKLISEEDLHHHHHH
As to B3, the “EC50 of SRE-dependent luciferase activity in HEK293/mfGFRα3/mfRet/SRE-LUC cells” value in [3] was 0.07 nM.

B4: H4H2234N (antibody, human IgG4, V domains shown)
VH: EVQLLESGGGLVQSGGSLRLSCAASGFSFNNYAMSWVRQAPGKGLEWVSFISGSGGSTYYADSVKGRFTISRDNSKNTLYLQMNSLRVEDTAVFYCAKDRYNYGTFFDYWGQGTLVTVSS
VL: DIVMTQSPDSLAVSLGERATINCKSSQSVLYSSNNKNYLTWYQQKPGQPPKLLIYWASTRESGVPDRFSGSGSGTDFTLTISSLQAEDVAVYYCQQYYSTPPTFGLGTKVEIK
notes: human IgG4 Fc (H4H)
B4: in [4], the “% max blocking” value turned out to be 70% and inhibition was half-maximal at 0.0829 nM (IC50). In addition, in assay [2], the “% max blocking” value was determined as 97% and the IC50 turned out to be 3.42 nM. The “IC50 (SRE-luc, HEK293/hGFRα3/hRET cells, 100 pM hARTEMIN-mmH)” value in assay [1] came out at 2.3 nM.

B5: H2aM2234N (antibody, mouse IgG2, V domains shown)
VH: B4 VH
VL: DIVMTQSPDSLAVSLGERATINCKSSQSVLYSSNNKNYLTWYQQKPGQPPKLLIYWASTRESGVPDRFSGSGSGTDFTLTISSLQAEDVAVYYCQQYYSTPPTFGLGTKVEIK
notes: chimeric, mouse IgG2 Fc (H2M/H2aM); also called H2M2234N
As to B5, the equilibrium dissociation constant (Kd) in assay [5] is 1.34 nM; in assay [6], 0.101 nM; in assay [7] it was 1.08 nM; in assay [8] it was 4.91 nM; in assay [9], 0.116 nM; in assay [10], 3.43 nM. The koff came to 0.000571 s⁻¹ in assay [5]; 9.6e-05 s⁻¹ in assay [6]; 0.000711 s⁻¹ in assay [7]; 0.00211 s⁻¹ in assay [8]; 0.000146 s⁻¹ in [9]; 0.00272 s⁻¹ in [10]. For the same molecule, the kon is 427000 M⁻¹ s⁻¹ in [5]; 950000 M⁻¹ s⁻¹ in [6]; 657000 M⁻¹ s⁻¹ in [7]; 429000 M⁻¹ s⁻¹ in [8]; 1.26e+06 M⁻¹ s⁻¹ in assay [9]; 793000 M⁻¹ s⁻¹ in assay [10]. Further, the t1/2 in assay [5] was 20 min; in assay [6], 120 min; in assay [7], 16 min; in assay [8], 5 min; in assay [9], 79 min; in assay [10], 4 min.
